Test results from article PMC9595545, “Nonamer dependent RAG cleavage at CpGs can explain mechanism of chromosomal translocations associated to lymphoid cancers”.

How the values were obtained:
[1] = biological target: T1, RAG1 nonamer binding domain (NBD) (UniProt P15919 389-456); assay: BLI; RAG EMSA: 22.5 mM MOPS-KOH pH 7.0, 20% DMSO, 2.2 mM DTT, 50 mM K-glutamate, 2% glycerol, 100 ng/ml BSA, 2 h, 25 C; NBD EMSA as in earlier work; BLI: SAX sensors, NBD 0.36-2.22 nM, 1:1 fit, buffer not stated; details: protein: recombinant, tags: His (pET28a, Ni-NTA), chain copies: 2, biotin (BLI)
T1 sequence: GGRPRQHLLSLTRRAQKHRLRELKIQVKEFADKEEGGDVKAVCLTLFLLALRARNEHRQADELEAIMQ

[2] = biological target: T1, RAG1 nonamer binding domain (NBD); assay: EMSA; RAG EMSA: 22.5 mM MOPS-KOH pH 7.0, 20% DMSO, 2.2 mM DTT, 50 mM K-glutamate, 2% glycerol, 100 ng/ml BSA, 2 h, 25 C; NBD EMSA as in earlier work; BLI: SAX sensors, NBD 0.36-2.22 nM, 1:1 fit, buffer not stated; details: protein: recombinant, tags: His (pET28a, Ni-NTA), chain copies: 2, T/G mismatch

B1: KI (AP66/AP67) (dsDNA)
DNA 1: GAAAAAAGTGGCTCCCTGCCCAAGTATCCCTGTAAAACAAAAACCAAAAG
DNA 2: CTTTTGGTTTTTGTTTTACAGGGATACTTGGGCGGGGAGCCACTTTTTTC
[1]; label: 5'-32P on AP66 (EMSA), T/G mismatch
  Kd: 360 pM

B2: FI (HK5/HK6) (dsDNA)
DNA 1: GGCCCTGCTTGACTGTGTCACAACCCCATCCAGTGGCCCTGAACTTGG
DNA 2: CCAAGTTCAGGGCCACTGGATGGGGTTGTGACGCAGTCAAGCAGGGCC
[1]; label: 5'-32P on HK5 (EMSA), T/G mismatch
  Kd: 690 pM

B3: 12RSS (AKN1/AKN2) (dsDNA)
DNA 1: GATCAGCTGATAGCTACCACAGTGCTACAGACTGGAACAAAAACCCTGCT
DNA 2: TAGCAGGGTTTTTGTTCCAGTCTGTAGCACTGTGGTAGCTATCAGCTGAT
[1]; label: 5'-32P on AKN1 (EMSA)
  Kd: 700 pM

B4: MTCI (NM50/NM51) (dsDNA)
DNA 1: TTCAGGGAGCTCTTGTGTTCAAACCACGAAGAAGACGCAGTTTAATCTCA
DNA 2: TGAGATTAAACTGCGTCTTCTTCGTGGTTTGAACGCAAGAGCTCCCTGAA
[2]; label: 5'-32P on NM50
  binding result: binds

B5: MTCII (NM88/NM89) (dsDNA)
DNA 1: TGCCATTGGCGTGAATGAGGGGAAGCCCCTCCTGACAGCTGGATGGTAGGACAAAGCCCTCTA
DNA 2: TAGAGGGCTTTGTCCTACCATCCAGCTGTCAGGAGGGGCTTCCCCTCGTTCACGCCAATGGCA
[2]; label: 5'-32P on NM88
  binding result: binds

B6: MTCIII (NM90/NM91) (dsDNA)
DNA 1: TCACGCCAATGGCAGTGCCAGGTGTTCAGGGAGCTCTTGCGTTCAAACCACGA
DNA 2: TCGTGGTTTGAACGCAAGAGCTCCCTGAACACCTGGCGCTGCCATTGGCGTGA
[2]; label: 5'-32P on NM90
  binding result: binds

B7: MTCIV (NM92/NM93) (dsDNA)
DNA 1: GGAGGGGCTTCCCCTTGTTCACGCCAATGGCAGCGCCAGGTGTTCAGGGAGCTCTTGCGTTCAAACCACGA
DNA 2: TCGTGGTTTGAACGCAAGAGCTCCCTGAACACCTGGCGCTGCCATTGGCGTGAACGAGGGGAAGCCCCTCC
[2]; label: 5'-32P on NM92
  binding result: binds
